Source: the MegaScale stability set (Tsuboyama et al. 2023)

B1: EEHEE_rd3_1049 (parent)
chain: TTVKLGDIKVTFDNPEKAKKYAQKLAKIYQLTVHVHGDTIHVK

Variants of: B1
Assay: folding stability dG (cDNA display proteolysis); higher = more stable
Conditions: PBS, room temperature

Folding stability dG [kcal/mol]: each site, then its substitutions
Y21: P -0.648, Q -0.123, H 0.523, R 0.268, D -0.407, N -0.383, C 2.04, F 2.36, M 0.885, K -0.234, E -0.031, A 0.651, W 2.22, I 0.827, L 1.15, S -0.364, T 0.282, G -0.676, V 0.867
A18: E -0.325, P -0.013, W 1.26, C 2.03, V 0.492, S 0.232, R 0.343, I 0.682, Y 0.624, Q 0.175, T 0.288, L 0.902, H 0.152, N 0.152, K 0.046, M 0.64, D -0.113, F 0.877, G 0.641
L25: M 1.55, R 0.324, F 0.868, A 0.276, T 0.212, I 1.83, P -0.554, V 1.26, H 0.021, G -0.255, E -0.772, Q 0.293, D -0.607, N -0.312, Y 0.832, S -0.33, W 1.44, K 0.474, C 2.11
K19: W 3.16, S 1.49, A 1.9, H 2.14, N 1.64, R 2.23, F 2.93, Y 2.9, L 3.31, Q 1.89, D 0.873, I 2.54, P -0.502, M 3.54, C 3.38, V 1.97, T 1.55, G 0.985, E 1.47
Y29: D -0.065, A 0.547
T11: Y 2.69, Q 1.88, K 2.06, N 1.65, P 1.05, I 2.33, R 2.24, M 2.15, L 2.21, V 2.42, S 1.77, W 2.74
K20: V 1.78, G 1.13, R 2.21, P -0.125, T 1.57, Q 2.02, F 1.8, M 2.04, A 2.27, E 2.06, Y 1.92, C 2.63, I 1.97, S 1.71, W 2.18, L 2.08, H 1.67, N 1.66, D 1.55
K24: S 1.57, A 1.98, Y 3.04, W 3.42, H 2.27, N 1.58, G 1.23, P -0.36, E 1.66, I 2.28, V 1.96, F 2.87, D 1.36, R 2.17, T 1.83, L 2.67, Q 1.86, M 2.65
A22: W 1.24, D -0.543, P -0.681, Y 0.937, R 0.612, F 1.08, K 0.531, M 1.07, H 0.262, G 0.327, T 0.394, S 0.584, I 1.48, E -0.139, N 0.115, V 1.34, Q 0.388, L 1.47
N14: I 1.22, M 1.2, P 0.431, Q 1.25, W 1.34, L 1.32, T 1.98, A 1.18, C 2.02, K 1.25, G 1.05, S 2.12, Y 1.05, F 1.2, E 1.4, H 1.61, R 1.26, V 1.12, D 2.38
A26: G 0.898, W 1.2, V 0.862, L 1.16, N 0.427, D 0.078, Y 1.01, S 1.23, E 0.645, T 0.662, F 1.11, I 1.09, M 1.23, R 1.37, K 1.02, Q 0.896, P -0.282, C 2.77, H 0.547
I28: H 1.64, V 1.56, K 2.48, L 2.33, M 2.36, Q 1.88, S 1.05, N 1.01, W 2.15, R 2.4, T 1.48, F 2.02, G 0.349, D 1.08, A 1.65, E 1.47, P -0.832, C 2.92, Y 2.14
K17: N 1.91, W 1.93, M 2.2, Q 2.21, D 2.45, L 2.17, C 3.1, A 2.39, S 2.05, F 1.84, G 1.25, H 2.02, V 2, Y 1.9, T 2.15, I 2, R 2.02, P 0.853, E 2.32
P15: S 1.59, W 2.47, Y 2.53, D 1.16, L 2.08, V 1.96, E 1.72, R 1.88, G 1.3, I 2.01, Q 1.65, N 1.43, T 1.4, M 2.1, H 2.04, K 1.78, F 3.11, A 2.09
K27: G 1.37, D 1.79, I 1.79, H 1.71, Y 2.13, M 2.01, V 1.61, S 1.83, R 2.27, W 2.05, Q 1.94, E 2.04, P -0.326, L 2.1, F 2.1, C 2.95, T 1.75, N 1.65, A 2.03
Q23: P -0.329, T 1.64, A 2.1, W 2.06, H 1.9, F 2.14, V 1.73, G 1.06, M 2.25, Y 2.29, S 1.58, R 1.94, K 1.87, N 1.88, E 2.19, L 2.22, C 3.24, D 1.91, I 2.03
F12: H 0.172, A 0.107, K 0.115, P 0.089, M 0.628, G -0.438, L 0.617, N -0.055, V 0.419, C 1.74, S -0.062, E 0.041, Y 0.563, R 0.188, I 0.634, T 0.094, Q 0.131, D -0.148, W 0.742
E16: G 1.54, V 1.85, M 1.91, K 1.91, L 1.92, P 0.35, I 1.98, Q 1.89, H 1.8, A 1.94, W 1.93, N 1.7, T 1.77, R 1.82, S 1.7, Y 1.9, C 2.66, D 1.96, F 1.9
D13: L 2.08, F 1.93, V 1.89, R 2.13, Q 2.1, Y 1.85, K 2.2, I 1.96, N 1.98, H 1.86, P 1.58, T 2.16, S 2.25, A 2.11, W 2.01, G 1.69, M 2.12, C 2.6, E 1.9
